In patent US7595158B2, “Bcl2L12 polypeptide activators and inhibitors” (Dana-Farber Cancer Institute, Inc., priority 2003, dated 2009):

T1: Apaf-1 polypeptide (Homo sapiens, UniProt O14727)
T1 construct: endogenous in cells; host or cells: 293T
T1 sequence (O14727 1-1248): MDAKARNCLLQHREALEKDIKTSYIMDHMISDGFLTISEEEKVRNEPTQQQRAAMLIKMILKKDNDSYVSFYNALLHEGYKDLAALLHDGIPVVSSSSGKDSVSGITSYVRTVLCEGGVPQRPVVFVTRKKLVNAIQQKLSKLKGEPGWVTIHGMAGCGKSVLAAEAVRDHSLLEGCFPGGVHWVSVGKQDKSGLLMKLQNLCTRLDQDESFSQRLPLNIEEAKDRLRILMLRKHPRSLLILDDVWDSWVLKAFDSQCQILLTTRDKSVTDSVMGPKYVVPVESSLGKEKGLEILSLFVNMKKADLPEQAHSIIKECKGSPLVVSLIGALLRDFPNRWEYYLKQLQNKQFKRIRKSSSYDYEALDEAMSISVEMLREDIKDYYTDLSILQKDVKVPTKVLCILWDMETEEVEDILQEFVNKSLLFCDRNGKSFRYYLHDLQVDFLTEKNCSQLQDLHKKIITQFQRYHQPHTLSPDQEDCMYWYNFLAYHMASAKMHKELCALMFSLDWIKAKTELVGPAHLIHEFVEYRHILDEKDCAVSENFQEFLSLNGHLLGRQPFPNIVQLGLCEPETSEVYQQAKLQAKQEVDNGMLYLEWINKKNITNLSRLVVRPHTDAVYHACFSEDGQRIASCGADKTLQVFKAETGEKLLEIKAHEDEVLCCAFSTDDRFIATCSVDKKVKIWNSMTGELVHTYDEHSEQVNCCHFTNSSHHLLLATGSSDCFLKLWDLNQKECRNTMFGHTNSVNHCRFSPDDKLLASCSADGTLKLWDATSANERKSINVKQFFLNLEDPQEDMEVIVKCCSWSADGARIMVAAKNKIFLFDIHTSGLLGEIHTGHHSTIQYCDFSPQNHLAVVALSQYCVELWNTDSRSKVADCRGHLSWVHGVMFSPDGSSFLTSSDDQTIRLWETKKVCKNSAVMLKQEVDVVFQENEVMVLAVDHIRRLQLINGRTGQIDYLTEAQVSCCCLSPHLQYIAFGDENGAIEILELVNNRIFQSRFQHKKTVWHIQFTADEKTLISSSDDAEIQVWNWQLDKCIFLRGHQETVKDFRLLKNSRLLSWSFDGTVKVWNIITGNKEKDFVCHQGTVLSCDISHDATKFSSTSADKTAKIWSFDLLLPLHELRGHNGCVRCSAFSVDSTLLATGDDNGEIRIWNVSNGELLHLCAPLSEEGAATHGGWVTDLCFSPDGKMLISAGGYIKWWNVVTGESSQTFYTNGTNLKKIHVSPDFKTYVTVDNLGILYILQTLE


How the values were obtained:
cytochrome c release = test: Cytochrome c release in STS-treated astrocytes; type: cell-based
Protocol: To determine whether Bcl2L12 polypeptides inhibit the apoptogenic activity of mitochondria, cytochrome c release in STS-treated astrocytes over-expressing Bcl2L12-V5 polypeptides was assessed and compared to astrocytes transfected with a LacZ control vector. An anti-tubulin immunoblot was performed as a loading control. Suboptimal concentrations of digitonin were used to allow for selective permeabilization of the plasma membrane, but not of the intracellular membranes. […] This is consistent with the inability of Bcl2L12-V5 polypeptides to localize to mitochondria.

Apaf-1 polypeptide = biological target: T1, Apaf-1 polypeptide; test: Co-immunoprecipitation of endogenous Apaf-1 in 293T cells; type: binding; conditions: anti-V5 immunoprecipitation from 293T cells
Protocol: To confirm this interaction, 293T cells were used to test the physical interaction between Apaf-1 and Bcl2L12 polypeptides in vivo. […] To test the association between Apaf-1 and Bcl2L12 polypeptides in vivo, Bcl2L12-V5 polypeptides were expressed in 293T cells and immunoprecipitated with an anti-V5 antibody. The amount of co-immunoprecipitated endogenous Apaf-1 polypeptide then was determined by Western blot analysis.
To assess whether the BH2 domain is necessary for Apaf-1 binding, Bcl2L12-V5-ΔBH2 polypeptides were immunoprecipitated from 293T cells, and co-immunoprecipitated Apaf-1 was quantified as described.

| Molecule | cytochrome c release (cytochrome c release) | association with Apaf-1 polypeptide (Apaf-1 polypeptide) |
| --- | --- | --- |
| Bcl2L12-V5: Bcl2L12 polypeptide having the V5 epitope tag, ectopically expressed from pBabe-Bcl2L12-V5 vector; human amino acid sequence 1-334 (protein, left off: small tags and cut ends) MGRPAGLFPPLCPFLGFRPEACWERHMQIERAPSVPPFLRWAGYRPGPVRRRGKVELIKFVRVQWRRPQVEWRRRRWGPGPGASMAGSEELGLREDTLRVLAAFLRRGEAAGSPVPTPPRSPAQEEPTDFLSRLRRCLPCSLGRGAAPSESPRPCSLPIRPCYGLEPGPATPDFYALVAQRLEQLVQEQLKSPPSPELQGPPSTEKEAILRRLVALLEEEAEVINQKLASDPALRSKLVRLSSDSFARLVELFCSRDDSSRPSRACPGPPPPSPEPLARLALAMELSRRVAGLGGTLAGLSVEHVHSFTPWIQAHGGWEGILAVSPVDLNLPLD | did not block cytochrome c release | found to be associated |
| Bcl2L12-V5-ΔBH2: V5 tagged mutant lacking amino acid residues 311-334 (BH2 domain) of human Bcl2L12; sequence 1-310 (protein, left off: small tags and cut ends) MGRPAGLFPPLCPFLGFRPEACWERHMQIERAPSVPPFLRWAGYRPGPVRRRGKVELIKFVRVQWRRPQVEWRRRRWGPGPGASMAGSEELGLREDTLRVLAAFLRRGEAAGSPVPTPPRSPAQEEPTDFLSRLRRCLPCSLGRGAAPSESPRPCSLPIRPCYGLEPGPATPDFYALVAQRLEQLVQEQLKSPPSPELQGPPSTEKEAILRRLVALLEEEAEVINQKLASDPALRSKLVRLSSDSFARLVELFCSRDDSSRPSRACPGPPPPSPEPLARLALAMELSRRVAGLGGTLAGLSVEHVHSFTP | exhibited cytochrome c release | bound comparable levels of Apaf-1 polypeptide |
